Assay [1] has as its target T1, human LAG-3 expressed on cells (human, UniProt P18627 23-525).
T1 sequence: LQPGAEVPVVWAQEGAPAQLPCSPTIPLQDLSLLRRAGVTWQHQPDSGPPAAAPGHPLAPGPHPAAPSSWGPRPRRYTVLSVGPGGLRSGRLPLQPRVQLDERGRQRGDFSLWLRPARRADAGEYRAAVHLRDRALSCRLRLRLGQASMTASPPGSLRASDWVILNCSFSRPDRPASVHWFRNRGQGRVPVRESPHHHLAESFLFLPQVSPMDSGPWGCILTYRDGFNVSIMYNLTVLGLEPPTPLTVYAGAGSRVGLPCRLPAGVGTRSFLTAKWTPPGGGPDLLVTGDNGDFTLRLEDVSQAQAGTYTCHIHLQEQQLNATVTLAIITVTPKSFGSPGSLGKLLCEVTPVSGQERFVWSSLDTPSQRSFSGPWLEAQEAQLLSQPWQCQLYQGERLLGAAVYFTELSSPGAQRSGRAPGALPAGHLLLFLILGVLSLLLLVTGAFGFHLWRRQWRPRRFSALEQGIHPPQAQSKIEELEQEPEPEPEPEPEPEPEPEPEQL
Nature of the assay: cell-based or functional assay.

The target in assay [2] is T2, Rhesus monkey LAG-3 (used as cynomolgus LAG-3) (Rhesus monkey (called cynomolgus in the …)).
T2 construct: extracellular domain
The assay is described as follows: ELISA, coated antigen, VH at 10 µg/ml, anti-HIS HRP. On the procedure:
(§1) To screen specificity by ELISA, antigens were coated at 1-5 ug/ml and blocked with Marvel milk powder. VH were added at 10 μg/ml and incubated for 1 hour. After washing, HRP-conjugated anti-HIS antibody (Miltenyi cat no. 130-092-785) was added. TMB substrate and acidic solution were used to develop colorimetric signal.

The target of assay [3] is T3, recombinant human LAG-3-Fc (human, UniProt P18627 23-450).
T3 construct: also called human LAG-3 (R&D Systems cat no. 2319-L3); LAG3 antigen
T3 sequence: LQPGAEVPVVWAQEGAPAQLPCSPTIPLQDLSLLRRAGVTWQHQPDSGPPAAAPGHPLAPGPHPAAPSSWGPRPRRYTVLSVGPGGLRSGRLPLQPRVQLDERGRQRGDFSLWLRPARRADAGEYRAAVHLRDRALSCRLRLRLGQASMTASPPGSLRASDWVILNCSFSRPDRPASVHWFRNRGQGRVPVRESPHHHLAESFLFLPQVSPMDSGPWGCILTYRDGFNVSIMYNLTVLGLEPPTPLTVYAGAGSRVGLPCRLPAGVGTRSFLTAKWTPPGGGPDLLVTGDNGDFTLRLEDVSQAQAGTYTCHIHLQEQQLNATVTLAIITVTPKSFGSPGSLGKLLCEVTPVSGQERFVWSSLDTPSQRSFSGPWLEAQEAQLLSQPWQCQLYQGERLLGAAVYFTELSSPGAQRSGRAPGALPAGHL
Described as above. On the procedure: as §1

In assay [4] the target is T4, human LAG-3 domains 1-2-Fc (human, UniProt P18627 23-261, limits assumed).
T4 construct: Domains were identified as per Huard et al 1997 PNAS 94:5744-9; also called truncated LAG-3
T4 sequence: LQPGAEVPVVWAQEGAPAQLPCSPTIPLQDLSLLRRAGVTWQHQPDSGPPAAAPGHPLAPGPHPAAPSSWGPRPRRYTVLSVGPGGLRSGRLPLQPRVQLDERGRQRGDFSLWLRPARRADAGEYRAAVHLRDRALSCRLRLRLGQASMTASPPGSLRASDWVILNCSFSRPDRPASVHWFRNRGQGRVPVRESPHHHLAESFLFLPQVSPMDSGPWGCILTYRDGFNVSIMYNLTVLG
The description is as above. The protocol: as §1

Assay [5] concerns the target T2, Rhesus monkey LAG-3 (used as cynomolgus …). Nature of the assay: BLI (Octet); cynomolgus LAG-3 immobilised on ARG2 sensors, 1:1 fit. On the procedure:
(§2) Binding kinetics for multi-valent and bispecific VH were also measured in real-time bio-layer interferometer based biosensor Octet (ForteBio). […] All the binding studies were performed in HBS-ET Octet kinetics buffer. Biosensors were washed in Octet kinetics buffer in between different steps. […] The contact time for each of the association steps was 150 seconds and the dissociation step was 400 seconds. […] To compare the constructs, kinetic association (kₐ) and dissociation (kd) rate constants were determined by processing and fitting the data to a 1:1 binding model using ForteBio Analysis software.
(In general: BLI is a label-free optical method that tracks binding on a fibre tip over time.)

The target of assay [6] is T3, recombinant human LAG-3-Fc. Nature of the assay: competition ELISA; LAG-3-Fc pre-incubated with VH, binding to coated LSECtin. The source says: (§3) The plate was blocked with 3% Marvel skimmed milk powder in PBS. […] Wash steps were done 3 times with PBS 0.05% Tween. Colour was developed using TMB and 0.5M sulphuric acid solution.
On the technique in general: ELISA stands for enzyme-linked immunosorbent assay.

Assay [7] deals with T1, human LAG-3 expressed on cells. Nature of the assay: FMAT (Mirrorball) binding to CHO human LAG-3 cells, anti-His detection. The source says:
Plates were read in the FL2 (502 nm-537 nm) and FL5 (677-800 nm) channels on the TTP Mirrorball plate reader following excitation at 488 nm and 640 nm. Data was gated on FL5 perimeter and peak intensity and the FL2 median mean fluorescence intensity of the gated data used for determination of VH binding.

The target in assay [8] is T3, recombinant human LAG-3-Fc. Nature of the assay: BLI (Octet); human LAG-3-Fc captured on protein G biosensors, 1:1 fit. On the procedure:
as §2

The next assay concerns the target T5, mouse LAG-3 (mouse, UniProt Q61790 24-442).
T5 construct: The construct is not described; also called mouse LAG-3 (Sino Biological cat no 53069-M02H); Mouse LAG3 (R&D Biotechne cat 3328-L3)
T5 sequence (looked up): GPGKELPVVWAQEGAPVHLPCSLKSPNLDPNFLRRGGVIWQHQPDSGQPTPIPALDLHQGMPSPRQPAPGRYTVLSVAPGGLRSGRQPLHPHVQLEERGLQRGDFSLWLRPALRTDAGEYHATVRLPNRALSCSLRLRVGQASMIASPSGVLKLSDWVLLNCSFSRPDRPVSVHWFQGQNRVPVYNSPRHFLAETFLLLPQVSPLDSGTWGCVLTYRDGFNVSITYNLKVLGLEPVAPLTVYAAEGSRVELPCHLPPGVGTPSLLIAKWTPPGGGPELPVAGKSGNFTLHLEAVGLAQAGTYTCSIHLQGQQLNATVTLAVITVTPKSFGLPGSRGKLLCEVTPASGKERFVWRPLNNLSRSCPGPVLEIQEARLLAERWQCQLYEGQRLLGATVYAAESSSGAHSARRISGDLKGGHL
The assay is described as follows: ELISA, coated antigen, anti-HIS HRP detection. The protocol:
as §1

The next assay deals with T6, CD4 (UniProt P01730 26-390).
T6 construct: also called CD4 (R&D Biotechne 514-CD)
Nature of the assay: ELISA, coated antigen, anti-HIS HRP detection. On the procedure: as §1

For assay [9], the target named is T3, recombinant human LAG-3-Fc. The assay is described as follows: BLI (Octet); human LAG-3-Fc amine-coupled to biosensor, VH in solution, 1:1 fit. The protocol: Binding kinetics were measured in real-time bio-layer interferometer based biosensor Octet (ForteBio). […] All the binding studies were performed in HBS-ET Octet kinetics buffer. Biosensors were washed in Octet kinetics buffer in between different steps. A seven point, two-fold dilution series of each Humabody® VH was made with a top concentration of 1.6 μM. The contact time for each of the association steps was 150 seconds and the dissociation step was 300-400 seconds. Kinetic association (kₐ) and dissociation (kd) rate constants were determined by processing and fitting the data to a 1:1 binding model using ForteBio Analysis software.

The target in assay [10] is T4, human LAG-3 domains 1-2-Fc. The assay is described as follows: BLI (Octet); human LAG-3 domains 1-2-Fc captured on protein G biosensors, 1:1 fit. On the procedure:
as §2

For assay [11], the target named is T3, recombinant human LAG-3-Fc. The assay is described as follows: competition ELISA; LAG-3-Fc pre-incubated with VH, binding to coated alpha-synuclein.
Source text: as §3

This note sets out measurements from patent US20210015937A1 (CRESCENDO BIOLOGICS, published 2021).

By Kd is commonly meant the equilibrium constant for the complex coming apart. One may read the koff as the first-order rate constant of dissociation. For orientation: kon means the rate constant with which the complex forms. One may read the IC50 as the midpoint of a concentration-inhibition curve. By EC50 is commonly meant the concentration at which the effect is half-maximal.

B1: VH 1.1 (VHH)
VHH: EVQLVESGGGVVRPGGSLRLSCSASGFTFDDYGMSWVRQAPGKGLEWVSGIHWNGGNSGYADSVKGRFTISRDNAKNSLYLQMNSLRAEDTALYYCARIPREDCSSASCYTDAIDFWGPGTMVTVSS
notes: Human VH single domain antibody (Humabody) against LAG-3; also called VH single domain antibody 1.1; monovalent LAG-3 VH 1.1
Take B1: the “EC50 (M), NFAT-Luciferase Reporter Gene assay (LAG-3:MHCII)” value in assay [1] is over 3.3e-07 M. In addition, the “ELISA signal over background” value in [2], in assay [3] and in assay [4] was over 10 fold over background in each case. The dissociation constant (Kd) in assay [5] was 25.6 nM; in assay [8] it was 32.6 nM; in [9] it was 31.3 nM; in assay [10], 67.5 nM. Further, the koff in assay [5] amounted to 0.000222 s⁻¹; in assay [8], 0.000905 s⁻¹; in assay [9], 0.00089 s⁻¹; in assay [10], 0.0011 s⁻¹. Moreover, the on-rate (kon) in assay [5] turned out to be 8650 M⁻¹ s⁻¹; in [8], 27800 M⁻¹ s⁻¹; in assay [9], 26200 M⁻¹ s⁻¹; in [10], 16200 M⁻¹ s⁻¹. For the same molecule, the IC50 is 210 nM in [6] and 45 nM in [11]. Besides, it took 1.8 nM to reach a half-maximal effect in assay [7] (EC50). The binding result with mouse LAG-3 and in the assay with CD4 was “no binding (tested: 10 µg/ml VH)” each time.
